Source: the DeepSol protein solubility set

Test: soluble on expression in E. coli; label from the status in PepcDB or PDB records

Sequence | soluble on expression in E. coli
MGSDKIHHHHHHMGLLTNLKDSISRAASTLFSEEDPKRIGIYGPPNAGKTTLANRIARDWTGDAVGPESHVPHETRRARRKENVEIERDGKKVTIDIVDTPGVTTKVDYTEFLEHDMEKDDAVRRSREATEGVAEAMHWLREDVDGVIYVLDSATDPFTQVNTMLIGIIESQDLPVLILANKIDLEESSVQRIRNAYPQHETIPLSALEGDNMDEVYDKIAEYFG | not soluble
MGSDKIHHHHHHAQTDPSQLKKEGSDAFNAKNYPVAYAKFSEYLKQTNNQDSAIAYYCGMAADEVKKYAEAVTFFDIAIQKKFNIGNAYARKALALDAMKKTDEYVATLEEGLKVDPDNKTMIKNYGLHYLKAGIAAQKAGKVEEAEECFKKVIPLDHKTYKTNALYSLGVLCYNDGANILKKAAPLANSDADKYAAEKEKADGRFKEAIGYLEEATKVSPEDTKSKTMLSQVQAAMK | not soluble
MLTNQELTAKVKEISLTYFKQSFDHEAKWNQRLRTTGGRFFPKDLHLDFNPKMAELKDFEGVILHELTHYHLYRSKRGYKHRDADFKRLLSQVGGLRYAPSVIDKKIKYYYSCQNCGQLYPRQRKIDTKKYRCGKCRGKLILKTSGNLEHHHHHH | soluble
MGSDKIHHHHHHMNVPKAGKVICAGLGPGDPELMSVKSWRALQGATHVAYFRKAGRAGQARAIVEGLLPAGVTEYPMEYPVTTEIHFSDPEYNRQLAAFYDQWADTLAEIAATQTVVVLCEGDPFLYGSFMHLHTRLEGRAEVEIIPGITGMSGCWTATGQPITWGDDVLTVAMATLSEDELTQRIRQTDALVVMKIGRNLPKLRRALEAAGRLQDAWLVERGTMPAQTVQKLTDVDGEVPYFSIVILHGEGRRP | not soluble
MAHHHHHHMSLRPDVFGQPPIVDRFARFAIARRGSSSSHNNNNNNNNNNSGSVSPLERGGVHGNDKSPAAAPVAAGVGSKAGVRESSAKSRLSLGVSNTDVVLESPISSNAAEATSEVMDVTSTAQADDEEEDEVETLNRFMADQSDETATRTHKRTLFSLNLTLAEVMETAMHFSQMRPTSPEEYKKAMAMIRAADDARHERIAAFRSATPTTGSHNGMGSSPSSSLTTTPTVGYPDAALHIEEPMHFGVVMLHIRFALRKIIHASMRRLAAQQGPKTLSMMVEMLREVDPKWHQNQNNNSGELRRQSDSMLAGTLRVLVARSVVCVDLVGEAGDLLGGGAGGLAISAVGLQRTERALHLVQRAKRSATGSGGNTGDHVSRRRPQRHRGDGGARTSSSGEKRSIS | not soluble
MSLDREGLNTHLKSGATTVCRAWEVRRTDGVTLGFTDHDRDLSFDGMTFRAGTGLSARSLMQSTGLAVDNSEALGALSSDAVREADIESGRYDGAEVRAWLVNWADTTERALQFRGSLGEIRRAGGAFEAELRGLTEALNQPLGRVFQKPCSAVLGDAACKFDLSTAGYAVEIDVETLRDGQLFAWASLDGFAPGWFTGGRLTVLGGAGAGLWAPIRSDSLNARREITLWQPIRADIQPGDLVRLSAGCDKRQSTCRLKFDNLVNYQGFPDIPGEDWMVAVPKRTGQNTGGSRREGHHHHHH | soluble
MTPDELARLTGYSRQTINKWVRKEGWTTSPKPGVQGGKARLVHVNEQVREYIRNAERPEGQGEAPALSGDAPLEVLLVTLAKEMTPVEQKQFTSLLLREGIIGLLQRLGIRDSK | not soluble
GAMEGIKVFLHERELWLKFHEVGTEMIITKAGRRMFPSYKVKVTGLNPKTKYILLMDIVPADDHRYKFADNKWSVTGKAEPAMPGRLYVHPDSPATGAHWMRQLVSFQKLKLTNNHLDPFGHIILNSMHKYQPRLHIVKADENNGFGSKNTAFCTHVFPETAFIAVTSYQNHKITQLKIENNPFAKGFRGSDDMELHRMSRMQ | soluble
SAAAAFDPLGPLPVYLVSVRLGIYEDEHHRVWIVANVETSHSSHGNRRRTHVTVHLWKLIPQQVIPFNPLNYDFLPTTWKLESRNIYWATDGTHWRLLDHSQLGDTEQLILMLVLG | soluble
MAHHHHHHMQSSALRPSSLLRAYHYVHPKTGRPIRQYRKYGDPRFINNEVALIKGLFALITTDFGMVTQSQLENARLAILRRMPRGSFALTMHTDYEEFPVVQKSPESRMGAGKSNIHHFAYKFTTGVPLFEITALSSRRLNQAEAEGIFLAGRSFIPLQTAVVPRGRVDEYHVFK | soluble
MGSDKIHHHHHHMKKIGHRIKTRRKLKGLTQEALGLAVGVSKVSVSSWELGKNSMHPELLNKVAGVLGVDAHWLLTGESFATLEDEKDSVFWAPKYKNIKAAAGAGCCHDDCLDEDEDEVPIPIKFVKNQTNKDQIFCVCVSGDSMEPVLSDGSIIAMNSSDTIIKDGKMYLVKQDDLLRVKVIHLLPKDMVLKSYNPNFKDETYNIKKDNIQILGRVFWFTSGR | not soluble
MSLRQAHFLKGKDAMNNPSVIPAFDFREMVTTLDNKIITTSLKVADYFGKRHKDVLRAIRNLKCSDDFTQRNFAPIDFIDKNGDVQPMYNITRDGCMMLVMGFTGKTAAAVKECYINAFNWMAEQLNRRMAMGEEGHHHHHH | soluble
MASISEKMVEALNRQINAEIYSAYLYLSMASYFDSIGLKGFSNWMRVQWQEELMHAMKMFDFVSERGGRVKLYAVEEPPSEWDSPLAAFEHVYEHEVNVTKRIHELVEMAMQEKDFATYNFLQWYVAEQVEEEASALDIVEKLRLIGEDKRALLFLDKELSLRQFTPPAEEEK | soluble
MPTLPRAANSRWRSLKIGLAPDLGLDDNGSLLLDFGPRQFTVSFDETLKPFVRDVSGSRLKDLPKPNKSDDETRANDAVNRYKLLKKDARTIAAQQVARLESAMCLRRRWSLENFQLFLVEHPLVRHLTRRLIWGVYSAENQLLACFRVAEDNSSSTADDDLFTLPEGDISIGTPHVLEISPTDAAAFGQLFADYELLPPFRQLDRNSYALTEAERNASELTRWAGRKCPSGRVMGLANKGWIKGEPQDGGWIGWMIKPLGRWSLIMEIDEGFAVGMSPAELSAEQLLSKLWLWEGKAERYGWGSNSTQEAQFSVIDAITASELINDIEALFE | not soluble
SEEAGSVALEELVEKEKDRFFSGVDYIVISDNLWISQRKPAITYGTRGNSYFMVEVKCRDQDFHSGTFGGILHEPMADLVALLGSLVDSSGHILVPGIYDEVVPLTEEEINTYKAIHLDLEEYRNSSRVEKFLFDTKEEILMHLWRYPSLSIHGIEGAFDEPGTKTVIPGRVIGKFSIRLVPHMNVSAVEKQVTRHLEDVFSKRNSSNKMVVSMTLGLHPWIANIDDTQYLAAKRAIRTVFGTEPDMIRDGSTIPIAKMFQEIVHKSVVLIPLGAVDDGEHSQNEKINRWNYIEGTKLFAAFFLEMAQLH | soluble
HHMKLYIMPGACSLADHILLRWSGSSFDLQFLDHQSMKAPEYLALNPSGAVPALQVGDWVLTQNAAILNYITDIAPAERGLSGDGSLKARAEINRWIAFSNSDVHPMYWALFGGTAYLQDPQMIARSQDNARQKLRVLYQRADAHLKHHNWLANGQRSGADAYLYVTLRWAKKVGVDLSSLDALSAFFERMEADPGVQAALQAEGLI | soluble
MMQYMLLFSRQGKLRLQKWYTAYPDKQKKKICRELITQILARKPKMCAFLEYKDLKVVYKRYASLYFCCAIEQNDNELITLEVIHRYVELLDKYFGSVCELDIIFNFEKAYFILDEFLLAGEIQETSKKQVLKAIAAQDLIQEEETPQGFFEDHGLG | not soluble
MGSDKIHHHHHHMTNIAILGTASDVGKSIVATALCRIFSNAGVDVAPYKAQNMSNNSGVTPDGFEMGRAQIVQAQAARVAPHADMNPVLLKPNTDTGAQVVLQGKVCADKSAREYFGDTQRWAEAAFESLDRLMVRHELLVIEGAGSCAEMNLYQRDFVNFKTARRAGAAVILVADIDRGGVFAQVVGTLAVIPPEDRALVKGVIINRFRGDKSLFEGGVKMLESMTGVPVLGVIPYFRGFTIDAEDAVPLSSVVDPKQEPSGDKIGVAAIYFPHISNFTDLAPLERDPSVELHYLHRPKSLDGYKALILPGSKNVRGDLAWLETMGWRDEIEKFRKRGGIIVGLCGGYQMLGASIADPYGVEGAPGASAGLAMLPVETVLEREKALCNSVGKIAGTPFFVSGYEIHMGRTALEPGASPLLEVTERNGVATDDFDGAKSADGQVTGTYFHGFFDRPEVRTWFLRLLDGGYESPRGASVADPFELLAKHFSENLDLEKLFAIAGLSVKGEKES | not soluble
SREGVLYDGDSLAYIIAKHRQQLGELQGGVAGTLMTNLAVEQAFERLGIPFARANVGDRYVSELLQQNDWYLGAENSGHIICRDKHTTGDGIISALQVLYALRDTGLTLADFMRDVPFF | not soluble
